Results from patent US20210340249A1, “MUSCARINIC ACETYLCHOLINE RECEPTOR BINDING AGENTS AND USES THEREOF” (VIB VZW, priority 2013, published 2021).
“Also recorded” adds a separate entry of the source.

T1: human M2 muscarinic receptor (Homo sapiens, UniProt P08172, DEL233-374/N2D/N3D/N6D/N9D)
T1 construct: FLAG (N); 8xHis (C); made in house; host or cells: Sf9 insect cells, BestBac baculovirus system
T1 sequence (P08172 with tags, fused parts or gaps N2D/N3D/N6D/N9D/DEL233-374): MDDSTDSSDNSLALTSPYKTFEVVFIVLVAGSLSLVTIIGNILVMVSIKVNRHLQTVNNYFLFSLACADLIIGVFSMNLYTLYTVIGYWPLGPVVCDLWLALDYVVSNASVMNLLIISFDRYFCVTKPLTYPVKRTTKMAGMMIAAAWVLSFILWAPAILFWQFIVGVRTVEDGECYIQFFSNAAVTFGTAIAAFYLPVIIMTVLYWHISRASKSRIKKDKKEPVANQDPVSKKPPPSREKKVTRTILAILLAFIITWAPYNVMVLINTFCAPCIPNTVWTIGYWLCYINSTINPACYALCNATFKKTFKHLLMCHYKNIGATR


Molecular target: T1, human M2 muscarinic receptor
Assay: M2 receptor radioligand binding assay (3H N-methyl scopolamine, receptor reconstituted into HDL particles)
Conditions: for enhancement of M2 receptor affinity for the agonist iperoxo: competition binding assay, iperoxo vs 3H N-methyl scopolamine, compared with G protein Gi
Text: M2 muscarinic receptor expression and purification. The human M2 muscarinic receptor gene was modified to remove glycosylation sites, and to add an amino-terminal FLAG tag and a carboxy-terminal 8×His tag. In addition, residues 233-374 of intracellular loop 3 were deleted. […] Human M2 muscarinic receptor bearing an amino-terminal FLAG epitope tag and carboxy-terminal 8×His tag was expressed in Sf9 cells using the BestBac baculovirus system (Expression Systems; Davis, Calif.). Cells were infected at a density of 4×10^6 cells/mL, then incubated for two days at 27° C. Receptor was extracted and purified in the manner described previously for the M3 muscarinic receptor (Kruse et al., 2012). Briefly, receptor was first purified by Ni-NTA chromatography, FLAG affinity chromatography, then size exclusion chromatography. 1 μM atropine was included in all buffers. Receptor was then labeled with a 5-fold molar excess of biotin-NHS ester (Sigma-Aldrich; St. Louis, Mo.) in buffer containing 25 mM HEPES pH 7.2. Following a 30 minute incubation at room temperature and a 30 minute incubation on ice, unreacted label was quenched with 50 mM Tris pH 8. Directly labeled samples with fluorophore-NHS esters were prepared similarly. Receptor was then desalted into buffer containing either 10 μM tiotropium, 10 μM iperoxo, or buffer containing no ligand. Receptor eluted in buffer containing no ligand was treated with 50 μM iperoxo mustard (derivative of iperoxo that allows covalent binding to M2 receptor) for 20 minutes at room temperature. Samples were then concentrated, aliquoted, and flash frozen with 20% (v/v) glycerol.
M2 receptor radioligand binding assays. M2 receptor was expressed and purified, as described above. Receptor was then reconstituted into HDL particles consisting of apolipoprotein A1 and a 3:2 (mol:mol) mixture of the lipids POPC:POPG (1-palmitoyl-2-oleoyl-sn-glycero-3-phosphocholine: 1-palmitoyl-2-oleoyl-sn-glycero-3-phosphocholine and 1-hexadecanoyl-2-(9Z-octadecenoyl)-sn-glycero-3-phospho-(r-rac-glycerol), respectively, Avanti Polar Lipids). Binding reactions contained 50 fmol functional receptor, 0.6 nM 3H N-methyl scopolamine (NMS), 100 mM NaCl, 20 mM HEPES pH 7.5, 0.1% BSA, and ligands and nanobodies as indicated. Single point allosteric effects of nanobodies were measured in the presence of 10 nM iperoxo. Concentration-dependent effects of nanobodies were measured in the presence of 10 nM iperoxo. All reactions were 500 μL in volume. Reactions were mixed and then incubated for two hours. Samples were then filtered on a 48-well harvester (Brandel) onto a filter which had been pretreated with 0.1% polyethylenimine. All measurements were taken by liquid scintillation counting, and experiments were performed at least in triplicate.
To determine whether the Nanobody variants that specifically stain agonist-bound M2 receptor are able to stabilize the M2 receptor active state, a binding assay was performed. Due to the allosteric properties of GPCRs, molecules that stabilize the active conformation of a receptor also increase agonist affinity. Several conformationally specific binders were isolated and were tested for their ability to induce an increase in the affinity of the non-covalent agonist iperoxo.

enhancement of M2 receptor affinity for the agonist iperoxo	EC50 (concentration-dependent effect of nanobody in the presence of 10 nM iperoxo, 0.6 nM 3H N-methyl scopolamine, read-out: EC50 of nanobody effect on agonist ability to displace a radioactive probe) [nM]	dose-dependent effect on agonist ability to displace a radioactive probe (in the presence of 10 nM iperoxo, 3H N-methyl scopolamine)	Molecule	effect on binding of the radioligand N-methylscopolamine (allosteric binding properties) (single point, with and without agonist (10 nM iperoxo))
confirmed to enhance agonist affinity			Nb9-1: Nanobody SEQ ID NO:2; M2 Gi mimetic (protein, listed as Lama glama) VHH: QVQLQESGGGLVQAGGSLRLSCAASGHTFSSARMYWVRQAPGKEREFVAAISRSGFTYSADSVKGRFTISRDIANNTVYLQMNSLQPEDTAIYTCYAAYLDEFYNDYTHYWGLGTQVTVSS	
confirmed to enhance agonist affinity			Nb9-20: Nanobody SEQ ID NO:11; M2 Gi mimetic (protein, listed as Lama glama) VHH: QVQLQESGGGLVQPEGSLTLACDTSGFTMNYYAIAWFRQAPEKEREGLATISSIDGRTYYADSVKGRFTISRDSAKNMVYLQMNNLRPEDTAVYYCSAGPDYSDYGDESEYWGQGTQVTVSS	
			clone B4: Nanobody SEQ ID NO:16; functional extracellular M2 nanobody ligand (protein, listed as Lama glama) VHH: QVQLQESGGGLVQAGGSLRLSCAASGRTFSNYAMSWFRQAPGKERGLVATIYRSGEGTYYLPSAKGRFTVSRDNAKNTAYLQMNSLKAEDTAVYYCAVMSRGTWSMWGQGTQVTVSS	decrease in the binding of the radioligand N-methylscopolamine only in the presence of agonist

Molecule	enhancement of M2 receptor affinity for the agonist iperoxo	EC50 (concentration-dependent effect of nanobody in the presence of 10 nM iperoxo, 0.6 nM 3H N-methyl scopolamine, read-out: EC50 of nanobody effect on agonist ability to displace a radioactive probe) [nM]	dose-dependent effect on agonist ability to displace a radioactive probe (in the presence of 10 nM iperoxo, 3H N-methyl scopolamine)	effect on binding of the radioligand N-methylscopolamine (allosteric binding properties) (single point, with and without agonist (10 nM iperoxo))
Nb9-8: Nanobody SEQ ID NO:1; M2 Gi mimetic, active-state stabilizing, binds intracellular surface of M2 receptor (protein, listed as Lama glama) VHH: QVQLQESGGGLVQAGDSLRLSCAASGFDFDNFDDYAIGWFRQAPGQEREGVSCIDPSDGSTIYADSAKGRFTISSDNAENTVYLQMNSLKPEDTAVYVCSAWTLFHSDEYWGQGTQVTVSS	confirmed to enhance agonist affinity; also recorded: enhanced the affinity of the M2 receptor for iperoxo to almost the same extent as that observed in the presence of the heterotrimeric G protein Gi; also recorded: substantial enhancement of iperoxo affinity	~100	dose-dependent effect	
